In paper PMC8809517, “Cofactor-independent RNA editing by a synthetic S-type PPR protein” one finds Kd data, which are given here for 4 molecules.

Positions count from the first letter of the chain named.

Common to all, as to test: high-throughput RNA pulldown from lysate on Ni-NTA beads; HRP: 50 mM Tris pH 8, 150 mM NaCl, 1 mM beta-mercaptoethanol, 50 ug/ml BSA, 3 ug/ml yeast RNA, 0.5% heparin; ITC and FP: Tris pH 8, 200 mM KCl, 5% glycerol; MST: 50 mM Tris pH 8, 200 mM NaCl, 1 mM DTT, BSA, heparin, 0.05% Tween 20
Common to all, as to conditions: tags: N-terminal His-eGFP

The target in data set [1] is T1, GFP-9S library array, motif 4 ND N98Q;D124K (synthetic construct, N98Q;D124K).
T1 chain: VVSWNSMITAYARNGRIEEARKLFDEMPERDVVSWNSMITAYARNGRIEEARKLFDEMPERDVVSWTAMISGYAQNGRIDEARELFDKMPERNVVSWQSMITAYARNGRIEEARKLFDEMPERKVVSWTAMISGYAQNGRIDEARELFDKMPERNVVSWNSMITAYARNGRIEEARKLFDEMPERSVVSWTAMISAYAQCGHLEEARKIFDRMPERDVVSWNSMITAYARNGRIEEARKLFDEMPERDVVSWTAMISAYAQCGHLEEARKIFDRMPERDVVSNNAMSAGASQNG

The target in data set [2] is T2, GFP-9S library array, motif 4 ND N98V;D124E (synthetic construct, N98V;D124E).
T2 chain: T1 chain with Q98V, K124E

Data set [3] concerns the target T3, GFP-9S library array, motif 4 ND N98R;D124A (synthetic construct, N98R;D124A).
T3 chain: T1 chain with Q98R, K124A

Data set [4] concerns the target T4, GFP-9S library array, motif 4 ND N98G;D124V (synthetic construct, N98G;D124V).
T4 chain: T1 chain with Q98G, K124V

Data set [5] deals with T5, GFP-9S library array, motif 4 ND N98E;D124P (synthetic construct, N98E;D124P).
T5 chain: T1 chain with Q98E, K124P

One may read the Kd as the concentration at which binding is half-saturated. For AUUAAACGUGA (ssRNA) [IR-rpoA-A], the Kd in data set [1] (label: 5' IRDye 800CW) turned out to be 257 nM; in data set [2] (label: 5' IRDye 800CW) it was 168 nM; in data set [3] (label: 5' IRDye 800CW), 145 nM; in data set [4] (label: 5' IRDye 800CW), 313 nM; in data set [5] (label: 5' IRDye 800CW), 264 nM.

As to AUUAUACGUGA (ssRNA) [IR-rpoA-U], the Kd in data set [1] (label: 5' IRDye 800CW) is 159 nM; in data set [2] (label: 5' IRDye 800CW) it was 244 nM; in data set [3] (label: 5' IRDye 800CW), 114 nM; in data set [4] (label: 5' IRDye 800CW), 234 nM; in data set [5] (label: 5' IRDye 800CW) it was 271 nM.

Regarding AUUAGACGUGA (ssRNA) [Cy5-rpoA-G], the dissociation constant (Kd) in data set [1] (label: 5' Cy5) amounted to 109 nM; in data set [2] (label: 5' Cy5) it was 167 nM; in data set [3] (label: 5' Cy5), 89.4 nM; in data set [4] (label: 5' Cy5), 118 nM; in data set [5] (label: 5' Cy5), 102 nM.

As to AUUACACGUGA (ssRNA) [Cy5-rpoA], the Kd in data set [1] (label: 5' Cy5) amounted to 91.3 nM; in data set [2] (label: 5' Cy5) it was 287 nM; in data set [3] (label: 5' Cy5), 75.1 nM; in data set [4] (label: 5' Cy5) it was 119 nM; in data set [5] (label: 5' Cy5) it was 130 nM.
